Assay results reported in PMC10786891, “Massively parallel profiling of RNA-targeting CRISPR-Cas13d”.
Where a chain is given by its changes, count along the chain named. In names and notes the source's numbering stands.

T1: EsCas13d, nuclease-dead (Eubacterium siraeum, UniProt B0MS50, R295A;H300A;R849A;H854A)
T1 sequence: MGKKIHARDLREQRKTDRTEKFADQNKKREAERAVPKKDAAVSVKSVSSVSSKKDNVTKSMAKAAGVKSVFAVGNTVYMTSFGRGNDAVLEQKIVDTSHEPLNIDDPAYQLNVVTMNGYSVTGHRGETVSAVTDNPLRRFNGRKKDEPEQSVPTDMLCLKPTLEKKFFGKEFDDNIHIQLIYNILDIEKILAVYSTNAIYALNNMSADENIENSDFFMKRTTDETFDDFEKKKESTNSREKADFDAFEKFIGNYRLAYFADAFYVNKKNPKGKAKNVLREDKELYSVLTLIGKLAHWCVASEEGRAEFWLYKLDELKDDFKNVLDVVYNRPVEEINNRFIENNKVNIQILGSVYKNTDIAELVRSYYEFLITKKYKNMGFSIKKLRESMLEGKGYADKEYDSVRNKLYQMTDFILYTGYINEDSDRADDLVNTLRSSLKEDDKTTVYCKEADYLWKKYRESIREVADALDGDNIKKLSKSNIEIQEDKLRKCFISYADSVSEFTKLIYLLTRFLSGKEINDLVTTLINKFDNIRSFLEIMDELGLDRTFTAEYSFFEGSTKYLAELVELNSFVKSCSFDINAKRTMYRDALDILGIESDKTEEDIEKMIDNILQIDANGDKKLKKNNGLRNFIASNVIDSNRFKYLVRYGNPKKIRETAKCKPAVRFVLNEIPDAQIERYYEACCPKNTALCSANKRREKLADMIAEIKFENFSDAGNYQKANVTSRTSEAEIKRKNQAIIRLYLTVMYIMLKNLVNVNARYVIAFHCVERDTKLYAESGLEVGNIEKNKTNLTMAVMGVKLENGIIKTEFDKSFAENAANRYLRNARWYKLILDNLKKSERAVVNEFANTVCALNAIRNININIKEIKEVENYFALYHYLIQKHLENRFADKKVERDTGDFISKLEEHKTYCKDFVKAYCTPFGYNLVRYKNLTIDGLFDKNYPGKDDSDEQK

B1: target 1 C7U,G17C (mixed)
RNA 1: CACCCGUGCAAAAAUGCAGGGGUCUAAAACUGAGCGGAUAACCUCUCUAUGG
RNA 2: GGGAAUGGAUCCACAUCUACGAAUUCGUACCAUACAGAGGUUAUUCGCUCACCGAGAUCGGAAGAGCACACGU
B2: target 1 C4G,C7G (mixed)
RNA 1: B1 RNA 1
RNA 2: B1 RNA 2 with C35G, U45G, C48G
B3: target 1 insC 3' of 5 (mixed)
RNA 1: B1 RNA 1
RNA 2: GGGAAUGGAUCCACAUCUACGAAUUCGUACCAUAGAGAGGUUAUCCGCCUCACCGAGAUCGGAAGAGCACACGU
B4: target 1 insC 3' of 15,insC 3' of 15 (mixed)
RNA 1: B1 RNA 1
RNA 2: GGGAAUGGAUCCACAUCUACGAAUUCGUACCAUAGAGCCAGGUUAUCCGCUCACCGAGAUCGGAAGAGCACACGU
B5: target 1 C2U,C4G (mixed)
RNA 1: B1 RNA 1
RNA 2: B1 RNA 2 with C35G, U45C, C48G, C50U
B6: target 1 insC 3' of 17,insA 3' of 15 (mixed)
RNA 1: B1 RNA 1
RNA 2: B4 RNA 2 with A36C, G37A, C38G, C39A
B7: target 1 U11G,U19C (mixed)
RNA 1: B1 RNA 1
RNA 2: B1 RNA 2 with U33C, C35G, U41G, U45C
B8: target 1 insC 3' of 16,insA 3' of 7 (mixed)
RNA 1: B1 RNA 1
RNA 2: B4 RNA 2 with G37C, C38G, C39A, A40G, G42U, U44A, A45U, U46C, C47A
B9: target 1 insU 3' of 22,insA 3' of 13 (mixed)
RNA 1: B1 RNA 1
RNA 2: GGGAAUGGAUCCACAUCUACGAAUUCGUACUCAUAGAGAGAGUUAUCCGCUCACCGAGAUCGGAAGAGCACACGU
B10: target 1 A1G,U19G (mixed)
RNA 1: B1 RNA 1
RNA 2: B1 RNA 2 with U33G, C35G, U45C, A51G
B11: target 1 insC 3' of 13,insA 3' of 12 (mixed)
RNA 1: B1 RNA 1
RNA 2: B4 RNA 2 with C38A, C39G, A40C, G42A
B12: target 1 insG 3' of 4,insU 3' of 2 (mixed)
RNA 1: B1 RNA 1
RNA 2: GGGAAUGGAUCCACAUCUACGAAUUCGUACCAUAGAGAGGUUAUCCGCGUCUACCGAGAUCGGAAGAGCACACGU
B13: target 1 insC 3' of 20,insA 3' of 11 (mixed)
RNA 1: B1 RNA 1
RNA 2: B9 RNA 2 with U31C, C32A, A33C, A41G, G42U, U43A
B14: target 1 A1G,G5A (mixed)
RNA 1: B1 RNA 1
RNA 2: B1 RNA 2 with C35G, U45C, G47A, A51G
B15: target 1 insA 3' of 10,insC 3' of 8 (mixed)
RNA 1: B1 RNA 1
RNA 2: B12 RNA 2 with U44A, C45U, G47C, U50C, C51U, U52C
B16: target 1 insU 3' of 21,insA 3' of 3 (mixed)
RNA 1: B1 RNA 1
RNA 2: GGGAAUGGAUCCACAUCUACGAAUUCGUACCUAUAGAGAGGUUAUCCGCUACACCGAGAUCGGAAGAGCACACGU
B17: target 1 insC 3' of 18,insG 3' of 2 (mixed)
RNA 1: B1 RNA 1
RNA 2: B16 RNA 2 with U32A, A33U, U34A, A35C, A51C, C52G
B18: target 1 C6G,A16C (mixed)
RNA 1: B1 RNA 1
RNA 2: B1 RNA 2 with C35G, A36C, U45C, C46G
B19: target 1 G5A,C7G (mixed)
RNA 1: B1 RNA 1
RNA 2: B1 RNA 2 with C35G, U45G, G47A
B20: target 1 U10C,G17C (mixed)
RNA 1: B1 RNA 1
RNA 2: B1 RNA 2 with U42C, U45C
B21: target 1 insA 3' of 22,insC 3' of 19 (mixed)
RNA 1: B1 RNA 1
RNA 2: B4 RNA 2 with C31A, A32C, U33A, A34U, G35C, C38A, C39G
B22: target 1 insC 3' of 13,insA 3' of 7 (mixed)
RNA 1: B1 RNA 1
RNA 2: B4 RNA 2 with C38A, C39G, A40C, G42U, U44A, A45U, U46C, C47A
B23: target 1 insU 3' of 18,insG 3' of 4 (mixed)
RNA 1: B1 RNA 1
RNA 2: B16 RNA 2 with U32A, A33U, U34A, A35U, U50G, A51U
B24: target 1 insG 3' of 14,insA 3' of 6 (mixed)
RNA 1: B1 RNA 1
RNA 2: B4 RNA 2 with C38A, C39G, A40G, G42U, U44A, A45U, U46C, C48A
B25: target 1 insG 3' of 18,insU 3' of 15 (mixed)
RNA 1: B1 RNA 1
RNA 2: B4 RNA 2 with A36G, G37A, C38G, C39U
B26: target 1 insU 3' of 15,insA 3' of 15 (mixed)
RNA 1: B1 RNA 1
RNA 2: B4 RNA 2 with C38U, C39A
B27: target 1 U8A,U10C (mixed)
RNA 1: B1 RNA 1
RNA 2: B1 RNA 2 with C35G, U42C, U44A, U45C
B28: target 1 insU 3' of 21,insU 3' of 9 (mixed)
RNA 1: B1 RNA 1
RNA 2: B16 RNA 2 with C46U, G48C, C49G, U50C, A51U
B29: target 1 insC 3' of 22,insG 3' of 6 (mixed)
RNA 1: B1 RNA 1
RNA 2: B16 RNA 2 with U32C, C49G, U50C, A51U
B30: target 1 del9,del11 (mixed)
RNA 1: B1 RNA 1
RNA 2: GGGAAUGGAUCCACAUCUACGAAUUCGUACCAUAGAGAGGUUCCGCUCACCGAGAUCGGAAGAGCACACGU
B31: target 1 complement block 4-9 (mixed)
RNA 1: B1 RNA 1
RNA 2: B1 RNA 2 with C35G, A43U, U44A, U45G, C46G, G47C, C48G
B32: target 1 insC 3' of 15,insC 3' of 12 (mixed)
RNA 1: B1 RNA 1
RNA 2: B4 RNA 2 with C39A, A40G, G42C
B33: target 1 insA 3' of 19,insC 3' of 9 (mixed)
RNA 1: B1 RNA 1
RNA 2: B9 RNA 2 with U31C, C32A, A33U, U34A, A41G, G42U, U44A, A45C

target: T1, EsCas13d, nuclease-dead; experiment: crRNA (strand 1, pre-loaded); Mg2+; 40 mM Tris-HCl pH 7.5, 150 mM NaCl, 6 mM MgCl2, 1 mM DTT, 0.1% Tween-20, 0.2 mg/ml BSA; 25 C; 10 min per concentration, then washed; settings: tags: His6-TwinStrep-SUMO cleaved; N-terminal SNAP kept (SNAP-Surface 488); label: 3' end held by stalled T7 RNA polymerase

Binder	Kd
B1	77 ± 35 nM
B2	9.7 ± 0.5 nM
B3	9.6 ± 0.7 nM
B4	26.6 ± 1.5 nM
B5	5.1 ± 0.5 nM
B6	28 ± 4 nM
B7	86 ± 18 nM
B8	63 ± 15 nM
B9	17.1 ± 1.9 nM
B10	51 ± 6 nM
B11	15.7 ± 1 nM
B12	8.5 ± 0.4 nM
B13	11.9 ± 0.7 nM
B14	35 ± 4 nM
B15	15.4 ± 0.8 nM
B16	18.1 ± 0.9 nM
B17	38.9 ± 2.9 nM

Binder	Kd
B18	42.2 ± 1.8 nM
B19	11.8 ± 0.8 nM
B20	63 ± 19 nM
B21	51 ± 7 nM
B22	14.2 ± 0.9 nM
B23	20 ± 1.2 nM
B24	14.6 ± 1.3 nM
B25	70 ± 17 nM
B26	19 ± 1.7 nM
B27	19.2 ± 1.2 nM
B28	37 ± 4 nM
B29	25.2 ± 3.3 nM
B30	13.2 ± 1 nM
B31	7.99 ± 0.28 nM
B32	60 ± 13 nM
B33	55 ± 4 nM
